{"source": "paper doi:10.1101/2025.08.06.668955", "about": "“High-Affinity, Structure-Validated and Selective Macrocyclic Peptide Tools for Chemical Biology Studies of Huntingtin” (bioRxiv, 2025)", "key": {"HTT-HAP40 or HTT (HL5)": {"system": "HTT-HAP40 or HTT (HL5)", "assay": "FP displacement assay, FITC-labeled and unlabeled macrocycle pairs", "assay_type": "binding", "settings": "FITC-labeled HHL1 on HTT-HAP40; biological singlet in technical triplicate", "description": "We further verified the specificity of binding of the macrocycles for HTT and HTT-HAP40 by displacement assay (Supplementary Figure 3) with FITC-labeled and unlabeled macrocycle pairs. All labelled macrocycles were displaced by their sequence-matched unlabeled macrocycle, with IC50 values in the nanomolar range.\n57 Supplementary Figure 3. Displacement of fluorescently labeled macrocycles. a, Schematic for\n58 assay. b, Each fluorescently labeled macrocycle is displaced by its unlabeled partner from HTT-\n59 HAP40 or HTT (HL5) Conducted as a biological singlet in technical triplicate. c, Fluorescently\n60 labeled HHL1 is displaced by itself and HHD3, but no other macrocycle.\n(§1) (1 picture or pasted object on this page, not shown here)"}, "HTTQ23-HAP40 [1]": {"target": "T1, HTTQ23-HAP40 (Homo sapiens, UniProt P23610+P42858, INS38QQ)", "T1 construct": "Full-length wildtype HTT with a polyQ tract of 23 glutamines; FLAG; made in house; host or cells: Sf9 insect cells (baculovirus)", "T1 sequence (P42858 with tags, fused parts or gaps INS38QQ, one chain of several)": "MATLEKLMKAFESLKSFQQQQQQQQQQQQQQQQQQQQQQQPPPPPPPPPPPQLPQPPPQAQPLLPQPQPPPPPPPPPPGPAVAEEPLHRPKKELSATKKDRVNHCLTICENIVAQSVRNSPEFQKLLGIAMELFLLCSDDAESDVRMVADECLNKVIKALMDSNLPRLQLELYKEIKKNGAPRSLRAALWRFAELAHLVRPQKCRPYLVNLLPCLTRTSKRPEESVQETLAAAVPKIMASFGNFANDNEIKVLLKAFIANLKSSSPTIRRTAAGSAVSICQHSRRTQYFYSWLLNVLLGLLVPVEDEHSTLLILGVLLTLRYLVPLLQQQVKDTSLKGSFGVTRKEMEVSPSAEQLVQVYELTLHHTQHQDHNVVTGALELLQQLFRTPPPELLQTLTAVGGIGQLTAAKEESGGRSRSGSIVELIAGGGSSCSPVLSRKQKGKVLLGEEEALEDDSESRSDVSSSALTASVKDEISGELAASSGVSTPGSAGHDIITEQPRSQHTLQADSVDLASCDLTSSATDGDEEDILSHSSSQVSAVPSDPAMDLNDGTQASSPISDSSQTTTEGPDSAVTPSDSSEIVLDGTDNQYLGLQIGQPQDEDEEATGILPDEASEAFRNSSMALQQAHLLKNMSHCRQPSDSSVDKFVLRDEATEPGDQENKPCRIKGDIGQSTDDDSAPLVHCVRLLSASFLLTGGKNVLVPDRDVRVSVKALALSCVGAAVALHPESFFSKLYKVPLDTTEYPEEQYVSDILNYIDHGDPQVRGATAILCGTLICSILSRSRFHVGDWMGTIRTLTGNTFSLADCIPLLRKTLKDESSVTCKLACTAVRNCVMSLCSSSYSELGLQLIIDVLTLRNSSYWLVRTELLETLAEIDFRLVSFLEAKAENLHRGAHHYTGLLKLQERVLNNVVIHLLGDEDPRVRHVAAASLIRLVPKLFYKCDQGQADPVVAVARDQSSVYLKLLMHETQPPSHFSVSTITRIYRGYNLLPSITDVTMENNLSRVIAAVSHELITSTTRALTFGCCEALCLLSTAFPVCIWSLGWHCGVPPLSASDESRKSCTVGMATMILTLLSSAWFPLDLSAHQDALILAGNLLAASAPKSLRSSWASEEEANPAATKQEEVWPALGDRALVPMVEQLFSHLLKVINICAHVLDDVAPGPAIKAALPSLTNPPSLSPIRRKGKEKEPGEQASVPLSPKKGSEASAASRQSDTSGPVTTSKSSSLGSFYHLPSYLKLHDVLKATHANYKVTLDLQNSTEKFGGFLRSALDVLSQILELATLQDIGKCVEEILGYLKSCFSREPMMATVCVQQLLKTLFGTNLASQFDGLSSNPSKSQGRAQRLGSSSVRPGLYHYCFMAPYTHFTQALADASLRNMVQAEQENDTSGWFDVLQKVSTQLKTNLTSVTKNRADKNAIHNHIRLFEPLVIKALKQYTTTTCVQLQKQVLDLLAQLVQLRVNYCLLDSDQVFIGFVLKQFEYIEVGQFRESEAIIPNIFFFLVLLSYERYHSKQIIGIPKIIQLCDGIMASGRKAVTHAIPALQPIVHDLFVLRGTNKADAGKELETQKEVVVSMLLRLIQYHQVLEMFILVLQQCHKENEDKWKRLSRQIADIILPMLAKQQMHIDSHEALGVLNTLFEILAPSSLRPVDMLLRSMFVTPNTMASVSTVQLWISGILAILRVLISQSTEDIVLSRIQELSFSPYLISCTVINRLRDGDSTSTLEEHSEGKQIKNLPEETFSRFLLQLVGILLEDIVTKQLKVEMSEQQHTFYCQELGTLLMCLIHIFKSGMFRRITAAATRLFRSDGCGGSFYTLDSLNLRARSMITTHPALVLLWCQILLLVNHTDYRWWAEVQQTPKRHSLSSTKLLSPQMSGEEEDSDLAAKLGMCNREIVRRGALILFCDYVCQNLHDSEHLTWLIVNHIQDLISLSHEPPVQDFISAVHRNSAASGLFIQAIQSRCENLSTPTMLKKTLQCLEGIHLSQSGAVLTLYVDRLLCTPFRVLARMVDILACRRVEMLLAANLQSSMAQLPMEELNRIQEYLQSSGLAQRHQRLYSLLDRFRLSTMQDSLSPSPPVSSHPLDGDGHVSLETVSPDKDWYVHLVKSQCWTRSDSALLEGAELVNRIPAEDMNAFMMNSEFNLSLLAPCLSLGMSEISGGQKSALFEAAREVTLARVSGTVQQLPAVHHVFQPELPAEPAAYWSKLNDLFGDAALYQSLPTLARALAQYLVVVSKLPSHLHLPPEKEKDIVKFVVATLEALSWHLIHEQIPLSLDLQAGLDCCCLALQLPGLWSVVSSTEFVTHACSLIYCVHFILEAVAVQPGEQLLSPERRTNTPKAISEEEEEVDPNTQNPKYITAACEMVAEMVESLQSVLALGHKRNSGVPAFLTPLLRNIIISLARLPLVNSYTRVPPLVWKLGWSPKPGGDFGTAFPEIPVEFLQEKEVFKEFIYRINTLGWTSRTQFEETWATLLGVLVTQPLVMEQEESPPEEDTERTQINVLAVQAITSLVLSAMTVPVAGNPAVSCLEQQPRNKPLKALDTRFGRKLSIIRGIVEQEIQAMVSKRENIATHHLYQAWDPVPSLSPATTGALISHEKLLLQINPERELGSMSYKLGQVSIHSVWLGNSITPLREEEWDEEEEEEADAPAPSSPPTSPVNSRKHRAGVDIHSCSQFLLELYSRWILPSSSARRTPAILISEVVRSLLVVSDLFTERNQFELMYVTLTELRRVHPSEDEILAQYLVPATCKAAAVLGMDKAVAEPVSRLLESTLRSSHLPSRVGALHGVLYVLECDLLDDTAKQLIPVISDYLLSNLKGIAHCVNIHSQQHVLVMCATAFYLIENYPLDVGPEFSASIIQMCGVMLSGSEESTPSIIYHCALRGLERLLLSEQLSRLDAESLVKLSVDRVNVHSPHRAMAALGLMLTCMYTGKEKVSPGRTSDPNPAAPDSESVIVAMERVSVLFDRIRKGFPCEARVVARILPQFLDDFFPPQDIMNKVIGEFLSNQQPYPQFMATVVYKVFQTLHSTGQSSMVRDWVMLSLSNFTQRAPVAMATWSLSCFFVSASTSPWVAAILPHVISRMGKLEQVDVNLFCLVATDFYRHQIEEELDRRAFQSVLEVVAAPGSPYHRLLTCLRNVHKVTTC", "assay": "Thermal shift assay (DSF), HTTQ23-HAP40", "assay_type": "binding", "settings": "SYPRO Orange, 0.25 mg/mL protein, macrocycle up to 10 μM, 2.5% DMSO, n=3", "protocol": "In an Axygen® 384-well PCR microplate (REF# PCR-384-LC480-W-NF, Corning), samples were mixed to yield a final concentration of 0.25 mg/mL Q54 or Q23/HAP40, a 5-pt 2-fold serial dilution of each macrocycle (top concentration of 10 μM, 2.5% DMSO), and 5X SYPRO™ Orange (CAT# S6650, Thermo Fisher Scientific) in buffer (20 mM HEPES pH 7.4, 150 mM NaCl, 1 mM TCEP, 0.005% Tween-20). Differential Scanning Fluorimetry (DSF) was performed using a LightCycler® 480 (Roche LifeSciences) set to a 4 °C/min temperature ramp (20–95 °C) and fluorescence detection at 580 nm. Melting temperatures (Tm) were obtained from the minima of the negative derivative of each curve. The propagated error of the thermal shift (ΔTm) was calculated from the standard deviation of each Tm mean (n=3). To ensure a maximally macrocycle-bound fraction (KD ~10 nM; ~100% bound) at 0.25 mg/mL HTT or HTT-HAP40 (~0.7 μM), the upper limit of macrocycle tested was 10 μM.\n98 Supplementary Figure. 10. Thermal shift (ΔTm) induced by macrocycle binding. Melting\n99 temperature of HTTQ54 (left) with HL5 or HL2 minus HTTQ54 with DMSO (46.5 °C), and (right)\n100 HTTQ23-HAP40 with HD4, HL2, HL5, HHD2, HHD3, or HHL1 minus HTTQ23-HAP40 with DMSO\n101 (51.0 °C). ΔTm significance was determined using an unpaired t-test with Welch correction,\n102 comparing to the mean Tm of Q54 or Q23-HAP40 with DMSO; *P < 0.05, **P < 0.01, ***P <\n103 0.001. The summary table reports the ΔTm and exact P value at the highest concentration tested\nas §1"}, "HAP40": {"system": "HAP40", "assay": "Macrocycle precipitation (MP), co-purification of HAP40, LC-MS/MS", "assay_type": "binding, human", "settings": "HEK293T lysate versus HTT CRISPR knockout line", "description": "To assess macrocycle selectivity and identify potential HTT interacting proteins, we performed LC-MS/MS analysis of the proteins in the MP eluates. To control for non-specific binding, we performed MPs using lysates from a HTT CRISPR knockout cell line ([Jung et al., 2021]). Across all macrocycles, HTT emerged as the most enriched protein after background subtraction (Figure 5b). Given we performed affinity purification using macrocycles targeting distinct HTT surfaces, we hypothesized that any real HTT protein binder might be co-purified with two or more macrocycles. […] In contrast, HAP40 was not enriched by HL5, consistent with its specificity for apo HTT.\nMacrocycles were pre-conjugated to streptavidin beads (Cytiva, 17-5113-01) by incubating with a 30 μL slurry of beads per macrocycle purification (MP) in Lysis Buffer (10 mM Tris-HCl, pH 7.9, 150 mM NaCl, 0.1% NP-40, 1:500 protease inhibitor cocktail (Sigma-Aldrich), 1:1,000 benzonase nuclease, and 2 mM MgCl2) for 1 hour at 4°C. A concentration of 1.25 μM macrocycle was used for conjugation. After incubation, beads were washed three times with 500 μL Lysis Buffer to remove unbound macrocycles and resuspended in 500 μL of lysate at 4 mg/mL protein concentration.\nCells were harvested by centrifugation at 1,500 rpm for 5 minutes, washed twice with PBS, and snap-frozen. Cell pellets were then resuspended in 500 μL of Lysis Buffer (as described above) and incubated on an end-over-end rotator at 4°C for 1 hour. Lysates were clarified by centrifugation at 20,000g for 15 minutes at 4°C, and the supernatant was transferred to fresh 1.5 mL Eppendorf tubes. Protein concentration was determined by BCA assay (Thermo Fisher Scientific, 23225), yielding approximately 4 mg of protein on average. Lysates were diluted to a final concentration of 4 mg/mL for use, providing […] of total protein per MP.\nMacrocycle-conjugated beads were incubated with 2 mg of lysate in Lysis Buffer for 1 hour at 4°C with rotation. After incubation, beads were collected by centrifugation at 3,000 rpm, and the flow-through was saved for analysis. Beads were then washed sequentially with 1 mL of Wash Buffer 1 (10 mM Tris-HCl, pH 7.9, 100 mM NaCl, 0.1% NP-40) and twice with Wash Buffer 2 (Wash Buffer 1 without detergent). Lastly, bound proteins were eluted from the beads with 200 μL of 0.5 M NH4OH and flash-frozen in liquid nitrogen.\nAll sample preparation, LC MS/MS data collection, and MS data searches were carried out at the SPARC BioCentre at The Hospital for Sick Children (Toronto, ON, Canada). […] Samples were analyzed by liquid chromatography tandem mass spectrometry (LC-MS/MS) using an EASY-nanoLC 1200 system with a 1 h analysis and an Orbitrap Fusion™ Lumos™ Tribrid™ Mass Spectrometer (Thermo Fisher Scientific). […]"}, "HTTQ54 (apo)": {"target": "HTTQ54 (apo)", "assay": "FP"}, "[2]": {"target": "Full-length wildtype HTT with a polyQ tract of 23 glutamines, apo form (HTTQ23)", "sequence (P42858 other isoform, or with tags, fused parts or gaps)": "as the sequence (P42858 with tags, fused parts or gaps INS38QQ, one chain of several) above, with Y2311H, V2788I counted along it", "assay": "FP"}, "HTTQ23-HAP40 [3]": {"target": "HTTQ23-HAP40 (UniProt P23610 1-371)", "assay": "FP"}, "[4]": {"target": "T2, 40-kDa huntingtin-associated protein (HAP40), chain of the HTT-HAP40 complex used for cryo-EM (UniProt P23610 1-371)", "T2 construct": "40-kDa huntingtin-associated protein (HAP40); model built from PDB 6X90; The HAP40 chain of m26, for the pairs that touch in the structures", "T2 sequence (looked up)": "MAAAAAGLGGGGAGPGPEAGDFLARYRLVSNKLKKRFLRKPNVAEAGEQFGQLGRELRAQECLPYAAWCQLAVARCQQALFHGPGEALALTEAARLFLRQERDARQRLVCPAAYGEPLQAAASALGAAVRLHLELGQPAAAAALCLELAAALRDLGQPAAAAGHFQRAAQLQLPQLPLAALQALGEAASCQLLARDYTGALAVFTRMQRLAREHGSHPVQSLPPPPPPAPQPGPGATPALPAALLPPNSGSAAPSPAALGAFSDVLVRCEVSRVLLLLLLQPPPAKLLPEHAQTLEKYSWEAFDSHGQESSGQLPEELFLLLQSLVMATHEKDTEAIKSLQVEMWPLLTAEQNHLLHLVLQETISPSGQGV", "assay": "cryo-EM structure; HTT-HAP40 macrocycle complexes at 0.2 mg/ml in 25 mM HEPES pH 7.4, 150 mM NaCl, 0.025% CHAPS on graphene grids; Complex1 (HHL1, HL2, HD4) and Complex2 (HHD3, HL2, HD4)", "settings": "both partners purified"}, "[5]": {"target": "C-terminally biotinylated HTTQ23 (apo) (biotin on the C-terminal Avi-tag)", "sequence (P42858 other isoform, or with tags, fused parts or gaps)": "as the sequence (P42858 with tags, fused parts or gaps INS38QQ, one chain of several) above, with Y2311H, V2788I counted along it", "assay": "SPR"}, "[6]": {"target": "C-terminally biotinylated HTTQ23 in complex with HAP40 (UniProt P23610 1-371, biotin on the C-terminal Avi-tag)", "sequence (P42858 other isoform, or with tags, fused parts or gaps, chain 1 of 2, one chain of several)": "as the sequence (P42858 with tags, fused parts or gaps INS38QQ, one chain of several) above, with Y2311H, V2788I counted along it", "assay": "SPR"}}, "note": "Where a SMILES comes first, the peptide text is derived from it. Bridges are numbered along the chain shown (N, C = ends). Primed or numbered codes have the meaning given here. Where no end group is shown, it is not given here. [ ]: non-standard residue; d: D form. The star is where a group is joined. FITC″ = fluorescein isothiocyanate; ClAc = O=C(CCl)*", "data": [{"molecule": "CC[C@H](C)[C@@H]1NC(=O)[C@H](Cc2c[nH]c3ccccc23)NC(=O)[C@H](Cc2c[nH]c3ccccc23)NC(=O)[C@H](CC(N)=O)NC(=O)[C@H](CC(N)=O)NC(=O)[C@H](CCC(N)=O)NC(=O)[C@H](Cc2c[nH]c3ccccc23)NC(=O)[C@H](Cc2c[nH]cn2)NC(=O)[C@H](CCCNC(=N)N)NC(=O)[C@H]([C@@H](C)O)NC(=O)[C@@H](Cc2ccc(O)cc2)NC(=O)CSC[C@@H](C(N)=O)NC(=O)[C@H](Cc2ccccc2)NC(=O)[C@H](CCC(=O)O)NC(=O)[C@H](Cc2c[nH]cn2)NC(=O)[C@H](Cc2ccc(O)cc2)NC(=O)[C@H](CC(C)C)NC1=O", "note": "[HHD3] ({CH2CO}-[dY]TRHWQNNWWILYHEFC-NH2; thioether N-17; C-terminus assumed)", "values": [{"measurement": "Displacement of fluorescently labeled HHL1 by unlabeled macrocycle", "setting": "HTT-HAP40 or HTT (HL5)", "result": "displaced"}, {"measurement": "Thermal shift (ΔTm) of HTTQ23-HAP40 induced by macrocycle", "setting": "HTTQ23-HAP40 [1]", "result": "stabilized"}, {"measurement": "Enrichment of HAP40 in macrocycle pulldowns", "setting": "HAP40", "result": "consistently enriched"}]}, {"molecule": "CC[C@H](C)[C@@H]1NC(=O)[C@H](CC(C)C)NC(=O)[C@H](Cc2ccc(O)cc2)NC(=O)CSC[C@@H](C(N)=O)NC(=O)[C@@H]2CCCN2C(=O)[C@H](C(C)C)NC(=O)[C@H](CCC(=O)O)NC(=O)[C@H](C(C)C)NC(=O)[C@H](Cc2ccccc2)NC(=O)[C@H](C(C)C)NC(=O)[C@H](Cc2ccccc2)NC(=O)[C@H](Cc2c[nH]c3ccccc23)NC(=O)[C@H](CC(N)=O)NC(=O)[C@H](Cc2ccccc2)NC(=O)[C@H](CO)NC(=O)[C@H](CO)NC(=O)[C@H](CCCNC(=N)N)NC1=O", "note": "[HHL1] ({CH2CO}-YLIRSSFNWFVFVEVPC-NH2; thioether N-17; C-terminus assumed)", "values": [{"measurement": "Displacement of fluorescently labeled HHL1 by unlabeled macrocycle", "setting": "HTT-HAP40 or HTT (HL5)", "result": "displaced"}, {"measurement": "Thermal shift (ΔTm) of HTTQ23-HAP40 induced by macrocycle", "setting": "HTTQ23-HAP40 [1]", "result": "stabilized"}]}, {"molecule": "ClAc-[dY]DIWCETNKQTGILVLC-{FITC″} (thioether (positions not given here); also: thioether to downstream Cys, which of Cys5/Cys17 not given here)", "note": "[FITC-labeled HD4]", "values": [{"measurement": "Kd", "setting": "HTTQ54 (apo)", "result": 1.5, "unit": "nM"}, {"measurement": "Kd", "setting": "[2]", "result": 7.3, "unit": "nM"}, {"measurement": "Kd", "setting": "HTTQ23-HAP40 [3]", "result": 1.6, "unit": "nM"}]}, {"molecule": "{CH2CO}-[dY]TRHWQNNWWILYHEFC (thioether N-17 (inferred), macrocyclic peptide selected by RaPID on HTT-HAP40; printed with a superscript D before the first Y (D-tyrosine); also called macrocycle HHD3; source: synthetic peptide (Fmoc SPPS, RP-HPLC), without tags)", "note": "[HHD3]", "values": [{"measurement": "binding result", "setting": "[4]", "result": "binds"}]}, {"molecule": "{CH2CO}-YTHFQVAPWIQSLC (thioether N-14 (inferred))", "note": "[HL5]", "values": [{"measurement": "Kd", "setting": "[5]", "result": 10, "unit": "nM"}]}, {"molecule": "{CH2CO}-YLIRSSFNWFVFVEVPC (thioether N-17 (inferred), macrocyclic peptide selected by RaPID on HTT-HAP40; also called macrocycle HHL1; source: synthetic peptide (Fmoc SPPS, RP-HPLC), without tags)", "note": "[HHL1]", "values": [{"measurement": "Kd", "setting": "[6]", "result": 7, "unit": "nM"}, {"measurement": "binding result", "setting": "[4]", "result": "binds"}]}, {"molecule": "ClAc-[dY]DIWCETNKQTGILVLC (thioether (positions not given here); also: thioether to downstream Cys, which of Cys5/Cys17 not given here)", "note": "[HD4]", "values": [{"measurement": "Kd", "setting": "[6]", "result": 2.1, "unit": "nM"}, {"measurement": "Kd", "setting": "[5]", "result": 4.1, "unit": "nM"}]}]}
